According to ChEMBL document CHEMBL1157152, “Kinetic parameters and recognition of thymidine analogues with varying functional groups by thymidine phosphorylase” (Bioorg Med Chem, 2008):

Columns and labels:
[1] = substrate: Cc1cn([C@H]2C[C@H](O)[C@@H](CO)O2)c(=O)[nH]c1=O; test: (§1) Activity of Escherichia coli thymidine phosphorylase
[2] = substrate: Cc1cn([C@H]2CC[C@@H](CO)O2)c(=O)[nH]c1=O; test: as §1
[3] = substrate: Cc1cn([C@H]2C[C@H](O)[C@@H](C)O2)c(=O)[nH]c1=O; test: as §1

B1: Thymidine phosphorylase (Escherichia coli K-12), P07650 (protein)
chain: MFLAQEIIRKKRDGHALSDEEIRFFINGIRDNTISEGQIAALAMTIFFHDMTMPERVSLTMAMRDSGTVLDWKSLHLNGPIVDKHSTGGVGDVTSLMLGPMVAACGGYIPMISGRGLGHTGGTLDKLESIPGFDIFPDDNRFREIIKDVGVAIIGQTSSLAPADKRFYATRDITATVDSIPLITASILAKKLAEGLDALVMDVKVGSGAFMPTYELSEALAEAIVGVANGAGVRTTALLTDMNQVLASSAGNAVEVREAVQFLTGEYRNPRLFDVTMALCVEMLISGKLAKDDAEARAKLQAVLDNGKAAEVFGRMVAAQKGPTDFVENYAKYLPTAMLTKAVYADTEGFVSEMDTRALGMAVVAMGGGRRQASDTIDYSVGFTDMARLGDQVDGQRPLAVIHAKDENNWQEAAKAVKAAIKLADKAPESTPTVYRRISE
Km [1]: 2.5 mM
Vmax [1]: 5.2 mM/min
Km [2]: 32 mM
Vmax [2]: 0.014 mM/min
Km [3]: 10 mM
Vmax [3]: 3.4 mM/min
